Laboratory results reported in the supplement of paper PMC11246515.
± gives the standard deviation of the averaged measurements.

Assay: total protein half-life in vivo (active degradation + dilution); higher = more stable protein
[1] = E. coli NCM3722 delta-clpP delta-lon delta-hslV, growth: N-lim chemostat, doubling time 6 h
[2] = E. coli NCM3722 delta-clpP, growth: N-lim chemostat, doubling time 6 h
[3] = E. coli NCM3722 delta-hslV, growth: N-lim chemostat, doubling time 6 h
[4] = E. coli NCM3722 delta-lon, growth: N-lim chemostat, doubling time 6 h
[5] = E. coli NCM3722 delta-smpB, growth: N-lim chemostat, doubling time 6 h
[6] = wild type E. coli NCM3722, growth: C-lim chemostat, doubling time 3 h
[7] = wild type E. coli NCM3722, growth: C-lim chemostat, doubling time 6 h
[8] = wild type E. coli NCM3722, growth: C-lim chemostat, doubling time 12 h
[9] = wild type E. coli NCM3722, growth: N-lim chemostat, doubling time 6 h
[10] = wild type E. coli NCM3722, growth: N-lim chemostat, doubling time 12 h
[11] = wild type E. coli NCM3722, growth: P-lim chemostat, doubling time 6 h
[12] = wild type E. coli NCM3722, growth: P-lim chemostat, doubling time 12 h

Sequence	total protein half-life in vivo [1] [h]	total protein half-life in vivo [2] [h]	total protein half-life in vivo [3] [h]	total protein half-life in vivo [4] [h]	total protein half-life in vivo [5] [h]	total protein half-life in vivo [6] [h]	total protein half-life in vivo [7] [h]	total protein half-life in vivo [8] [h]	total protein half-life in vivo [9] [h]	total protein half-life in vivo [10] [h]	total protein half-life in vivo [11] [h]	total protein half-life in vivo [12] [h]
MSKIVKIIGREIIDSRGNPTVEAEVHLEGGFVGMAAAPSGASTGSREALELRDGDKSRFLGKGVTKAVAAVNGPIAQALIGKDAKDQAGIDKIMIDLDGTENKSKFGANAILAVSLANAKAAAAAKGMPLYEHIAELNGTPGKYSMPVPMMNIINGGEHADNNVDIQEFMIQPVGAKTVKEAIRMGSEVFHHLAKVLKAKGMNTAVGDEGGYAPNLGSNAEALAVIAEAVKAAGYELGKDITLAMDCAASEFYKDGKYVLAGEGNKAFTSEEFTHFLEELTKQYPIVSIEDGLDESDWDGFAYQTKVLGDKIQLVGDDLFVTNTKILKEGIEKGIANSILIKFNQIGSLTETLAAIKMAKDAGYTAVISHRSGETEDATIADLAVGTAAGQIKTGSMSRSDRVAKYNQLIRIEEALGEKAPYNGRKEIKGQA [P0A6P9]	5.56 ± 0.57	5.57 ± 0.75	4.86 ± 0.065	4.95 ± 0.37	4.634 ± 0.024	3.19 ± 0.15	5.95 ± 0.21	12.831 ± 0.01	5.06 ± 0.19	8.35 ± 0.29	5.52 ± 0.69	11.3 ± 0.84
MSKKIAVIGECMIELSEKGADVKRGFGGDTLNTSVYIARQVDPAALTVHYVTALGTDSFSQQMLDAWHGENVDTSLTQRMENRLPGLYYIETDSTGERTFYYWRNEAAAKFWLESEQSAAICEELANFDYLYLSGISLAILSPTSREKLLSLLRECRANGGKVIFDNNYRPRLWASKEETQQVYQQMLECTDIAFLTLDDEDALWGQQPVEDVIARTHNAGVKEVVVKRGADSCLVSIAGEGLVDVPAVKLPKEKVIDTTAAGDSFSAGYLAVRLTGGSAEDAAKRGHLTASTVIQYRGAIIPREAMPA	4.86 ± 0.33	4.46 ± 0.27	4.84 ± 1.2	–	4.53 ± 0.19	2.44 ± 0.65	5.96 ± 0.1	11.1 ± 0.28	4.64 ± 0.11	8.67 ± 1.7	5.5 ± 0.33	10.6 ± 1.2
MSKLFWAMLSFITRLPVPRRWSQGLDFEHYSRGIITFPLIGLLLGAISGLVFMVLQAWCGAPLAALFSVLVLVLMTGGFHLDGLADTCDGVFSARSRDRMLEIMRDSRLGTHGGLALIFVVLAKILVLSELALRGESILASLAAACAVSRGTAALLMYRHRYAREEGLGNVFIGKIDGRQTCVTLGLAAIFAAVLLPGMHGVAAMVVTMVAIFILGQLLKRTLGGQTGDTLGAAIELGELVFLLALL	7.472 ± 0.028	6.699 ± 0.053	6.15 ± 0.36	6.52	> 8	3.48 ± 0.11	5.85 ± 0.84	12.7 ± 1.4	5.87 ± 0.4	11.3	5.6	12.4 ± 1.2
MSKLIVPQWPQPKGVAACSSTRIGGVSLPPYDSLNLGAHCGDNPDHVEENRKRLFAAGNLPSKPVWLEQVHGKDVLKLTGEPYASKRADASYSNTPGTVCAVMTADCLPVLFCNRAGTEVAAAHAGWRGLCAGVLEETVSCFADNPENILAWLGPAIGPRAFEVGGEVREAFMAVDAKASAAFIQHGDKYLADIYQLARQRLANVGVEQIFGGDRCTYTENETFFSYRRDKTTGRMASFIWLI	5.05 ± 0.14	4.77 ± 0.76	4.885 ± 0.007	5.03 ± 0.24	4.05 ± 1	3.198 ± 0.027	5.11 ± 0.72	8.61 ± 0.21	5.03 ± 0.22	9.17 ± 0.77	5.644 ± 0.043	11.9 ± 0.43
MSKPAITLWSDAHFFSPYVLSAWVALQEKGLSFHIKTIDLDSGEHLQPTWQGYGQTRRVPLLQIDDFELSESSAIAEYLEDRFAPPTWERIYPLDLENRARARQIQAWLRSDLMPIREERPTDVVFAGAKKAPLTAEGKASAEKLFAMAEHLLVLGQPNLFGEWCIADTDLALMINRLVLHGDEVPERLVDYATFQWQRASVQRFIALSAKQSG	4.94 ± 0.39	5.5 ± 1.7	4.804 ± 0.025	5.18 ± 0.9	4.79 ± 0.39	2.97 ± 0.081	5.9 ± 0.35	9.65 ± 1.6	4.86 ± 0.41	8.65 ± 0.19	5.764 ± 0.044	12.5 ± 0.95
MSKPPLFFIVIIGLIVVAASFRFMQQRREKADNDMAPLQQKLVVVSNKREKPINDRRSRQQEVTPAGTSIRYEASFKPQSGGMEQTFRLDAQQYHALTVGDKGTLSYKGTRFVSFVGEQ	–	6.5	6.4 ± 0.69	5.45 ± 0.15	5.65 ± 0.38	3.61 ± 0.1	6.11 ± 0.42	11.6 ± 0.63	5.71 ± 0.065	11.3 ± 0.54	5.66 ± 0.5	11.5 ± 0.14
MSKRKVAIIGSGNIGTDLMIKILRHGQHLEMAVMVGIDPQSDGLARARRMGVATTHEGVIGLMNMPEFADIDIVFDATSAGAHVKNDAALREAKPDIRLIDLTPAAIGPYCVPVVNLEANVDQLNVNMVTCGGQATIPMVAAVSRVARVHYAEIIASIASKSAGPGTRANIDEFTETTSRAIEVVGGAAKGKAIIVLNPAEPPLMMRDTVYVLSDEASQDDIEASINEMAEAVQAYVPGYRLKQRVQFEVIPQDKPVNLPGVGQFSGLKTAVWLEVEGAAHYLPAYAGNLDIMTSSALATAEKMAQSLARKAGEAA	4.09 ± 1.4	5.24 ± 2.6	2.65 ± 0.48	2.43	2.21 ± 0.73	2.71 ± 0.36	4.45	6.77 ± 2.3	5.59	4.45	3.53	6.2 ± 0.2
